According to patent publication US20220324988A1:

Molecular target: human CD40 expressed on cells (human) (UniProt P25942)
Assay: cell-based or functional assay

Sequence of human CD40 expressed on cells (human) (P25942 21-277): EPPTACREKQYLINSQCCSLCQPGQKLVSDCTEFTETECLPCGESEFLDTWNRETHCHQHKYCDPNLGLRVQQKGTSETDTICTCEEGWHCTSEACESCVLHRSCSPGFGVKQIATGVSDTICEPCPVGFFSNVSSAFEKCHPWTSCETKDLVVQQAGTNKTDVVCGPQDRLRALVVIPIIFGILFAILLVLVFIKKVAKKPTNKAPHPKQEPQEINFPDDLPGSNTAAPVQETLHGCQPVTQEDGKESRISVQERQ

## CD40L (positive control, produced in 293F cells) (ligand)
  GFP positive rate for Jurkat/NF-kB-GFP+hCD40 single clones after CD40L stimulation (100 nM): 94.7%
